Test results taken from patent US20210179724A1 (TWIST BIOSCIENCE, published 2021).

Legend:
adenosine A2A receptor [1] = target: T1, adenosine A2A receptor (Homo sapiens (Human), UniProt P29274 1-412); assay: cell-based or functional assay
adenosine A2A receptor [2] = target: T1, adenosine A2A receptor; assay: flow cytometry titration 0.05-100 nM IgG; grey series read as HEK293-A2a cells
Experimental: Flow cytometry data showing binding to HEK293-A2a cells using immunoglobulins from variant libraries were generated using 100 nM IgG and compared to detected binding in parent cells. […] Selected variants were assessed for binding at concentrations titrated from 100 nM. […] Binding curves are plotted with IgG concentration vs. MFI (mean fluorescence intensity). […] Selected variants were assessed for binding at concentrations titrated from 100 nM. […] Binding curves are plotted with IgG concentration vs. MFI (mean fluorescence intensity).

adenosine A2A receptor [3] = target: T1, adenosine A2A receptor; assay: flow cytometry cell-binding titration 0.05-100 nM IgG; panel title 'Synthetic Library to A2a protein' (panning group)
adenosine A2A receptor [4] = target: T1, adenosine A2A receptor; assay: flow cytometry cell-binding titration 0.05-100 nM IgG
adenosine A2A receptor [5] = target: T1, adenosine A2A receptor; assay: flow cytometry cell-binding titration 0.05-100 nM IgG; panel title 'Immune Library to A2a protein + ZM241385' (panning group)

T1 sequence (P29274 whole entry): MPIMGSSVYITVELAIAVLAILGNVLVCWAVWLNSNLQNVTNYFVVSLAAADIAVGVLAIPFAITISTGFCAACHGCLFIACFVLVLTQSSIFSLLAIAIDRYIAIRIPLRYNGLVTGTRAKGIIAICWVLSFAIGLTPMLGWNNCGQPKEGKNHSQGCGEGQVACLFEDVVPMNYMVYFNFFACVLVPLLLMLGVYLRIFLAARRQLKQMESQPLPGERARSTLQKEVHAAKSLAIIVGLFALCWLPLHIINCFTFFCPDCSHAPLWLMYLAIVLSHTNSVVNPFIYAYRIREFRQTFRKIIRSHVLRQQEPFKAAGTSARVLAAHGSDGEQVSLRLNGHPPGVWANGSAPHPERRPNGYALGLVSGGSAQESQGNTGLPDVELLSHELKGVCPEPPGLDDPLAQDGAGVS

B1: A2A - 53 (antibody, V domains shown)
VH: EVQLVESGGGLVKPGGSLRLSCAASGFNIIDDYMHWVRQAPGKGLEWVGMITDTGEPTDADSVKGRFTISRDNSKNTLYLQMNSLRAEDTAVYYCVYDYIYAMDYWGQGTLVTVSS
VL: DIQMTQSPSSLSASVGDRVTITCKASQNMGSNVAWYQQKPGKAPKLLIYSASHRSSGVPSRFSGSGSGTDFTLTISSLQPEDFATYYCQQWNYPRITFGQGTKLEIK
IC50 (read off the curve), A2A antagonistic cAMP assay, RFU ratio 665/615 nm, 0.5 uM NECA (adenosine A2A receptor [1]): ~3 nM

B2: A2A-9 (antibody, V domains shown)
VH: EVQLQQSGPGLVKPSQSLSLTCSVTGYSITSGYYWNWIRQFPGKKLEWMGYIRYDGSNNYNPSLKNRISITRDTSKNQFFLKLNSVTTDDTATYYCARVHHYYGSSYFDYWGQGTTLTVSS
VL: DIVMTQSQKFMSTSVGDRVSATCKASQNVGSSVAWFQQKPGQSPKALIYSTSYRYSGVPDRFTGSGSGTDFTLTISNVQSEDLAEYFCQQYNSYPLTFGAGTKLEIK
notes: Tested as IgG; also called A2AR variant A2A-9
EC50 (read off the curve) (adenosine A2A receptor [2]): ~4 nM

B3: A2A-18 (antibody, V domains shown)
VH: EVQLVESGGGLVKPGGSLRLSCAASGFSFSGYAMSWVRQAPGKGLEWVSVISGSGGSTNYADSVKGRFTISRDNSKNTLYLQMNSLRAEDTAVYYCAAARGYPRWRLGRRYDYWGQGTLVTVSS
VL: DIQMTQSPSSLSASVGDRVTITCRASQSVTTYLNWYQQKPGKAPKLLIYSASSLQSGVPSRFSGSGSGTDFTLTISSLQPEDFATYYCQQTYATPWTFGGGTKVEIK
notes: tested as IgG
binding result (adenosine A2A receptor [3]): binds

B4: A2A - 77 (antibody, V domains shown)
VH: QVQLQESGPGLVKPSGTLSLTCAVSGGSISSSNWWSWVRQPPGKGLEWIGEIYHSGNTNYNPSLKSRVTMSVDKSKNQFSLNLHSVTAADTAVYYCAREVVSGMIGTIFDYWGQGTLVTVSS
VL: ELVMTQSPSSLSASVGDRVTITCRASQRISSYLNWYQQKPGKAPKLLIYAASSLQSRVPSRFSGSGSGTDFTLTISSLQPEDFATYYCQQSYSTPLTFGGGTKLETK
notes: tested as IgG
EC50 (read off the curve) (adenosine A2A receptor [4]): ~6 nM

B5: A2A - 81 (antibody, V domains shown)
VH: QVQLQESGPGLVKPSGTLSLTCAVSGGSISSSNWWSWVRQPPGKGLEWIGEIYHSGSTNYNPSLKSRVTISVDKSKNQFSLKLGSVTAADTAVYYCAREVVSGLYGTIFDYWGQGTLVTVSS
VL: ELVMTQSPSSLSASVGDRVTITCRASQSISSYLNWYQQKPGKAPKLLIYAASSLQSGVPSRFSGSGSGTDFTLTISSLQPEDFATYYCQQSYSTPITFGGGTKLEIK
notes: tested as IgG
binding result (adenosine A2A receptor [5]): binds
